T1: PBP1B (wild type, PBP1B^46-844) (E. coli, UniProt P02919 46-844)
T1 construct: PBP1B, E. coli, residues 46-844, encoded on pDML924; Immobilised on the SPR chip as in Egan et al. 2014 / Gray et al. 2015; also called WT PBP1B; WT; source: E. coli BL21(DE3), purified (membrane extract, HisTrap, thrombin, HiTrap SP ion exchange)
T1 sequence (looked up): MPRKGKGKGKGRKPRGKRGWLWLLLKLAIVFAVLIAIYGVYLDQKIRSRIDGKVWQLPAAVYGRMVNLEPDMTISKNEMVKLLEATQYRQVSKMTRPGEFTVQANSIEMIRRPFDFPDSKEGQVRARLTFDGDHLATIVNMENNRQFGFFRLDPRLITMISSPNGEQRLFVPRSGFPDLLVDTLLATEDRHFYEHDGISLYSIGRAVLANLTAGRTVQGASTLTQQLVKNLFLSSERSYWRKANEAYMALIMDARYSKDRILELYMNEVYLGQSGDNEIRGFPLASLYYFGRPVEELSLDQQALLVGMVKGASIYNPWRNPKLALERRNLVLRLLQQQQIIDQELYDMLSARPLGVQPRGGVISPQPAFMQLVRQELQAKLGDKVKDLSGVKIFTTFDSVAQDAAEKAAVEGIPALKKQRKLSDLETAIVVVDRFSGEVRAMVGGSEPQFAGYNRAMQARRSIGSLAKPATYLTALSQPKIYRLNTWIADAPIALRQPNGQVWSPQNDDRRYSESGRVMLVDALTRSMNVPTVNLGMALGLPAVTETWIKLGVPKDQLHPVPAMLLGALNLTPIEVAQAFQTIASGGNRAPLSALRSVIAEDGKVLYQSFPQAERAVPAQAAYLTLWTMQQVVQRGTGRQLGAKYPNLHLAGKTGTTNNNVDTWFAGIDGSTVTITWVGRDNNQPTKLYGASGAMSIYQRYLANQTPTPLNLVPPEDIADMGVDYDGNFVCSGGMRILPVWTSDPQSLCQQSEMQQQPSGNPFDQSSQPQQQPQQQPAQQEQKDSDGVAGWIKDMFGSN

B1: CpoB^TPR (CpoB^139-263), C-terminal TetratricoPeptide Repeat domain of CpoB (domain or fragment, E. coli, UniProt P45955 139-263, looked up)
chain: SGNANTDYNAAIALVQDKSRQDDAMVAFQNFIKNYPDSTYLPNANYWLGQLNYNKGKKDDAAYYFASVVKNYPKSPKAADAMFKVGVIMQDKGDTAKAKAVYQQVISKYPGTDGAKQAQKRLNAM
notes: CpoB, E. coli, residues 139-263 (TPR domain), in pET28a with a thrombin cleavage site; In the PRE NMR one of the partners was 15N-labelled, the other spin labelled at random on lysines with OXYL-1-NHS; also called C-terminal TPR domain; source: E. coli BL21(DE3), purified (HisTrap, Superdex 200)
B2: CpoB^TPR+link (CpoB^110-263) (domain or fragment, E. coli, UniProt P45955 110-263, looked up)
chain: STSGDQSGAAASTTPTADAGTANAGAPVKSGNANTDYNAAIALVQDKSRQDDAMVAFQNFIKNYPDSTYLPNANYWLGQLNYNKGKKDDAAYYFASVVKNYPKSPKAADAMFKVGVIMQDKGDTAKAKAVYQQVISKYPGTDGAKQAQKRLNAM
notes: CpoB, E. coli, residues 110-263 (inter-domain linker and TPR domain), in pET28a with a thrombin cleavage site; also called CpoB^TPR version with this linker (res. 110–263); source: E. coli BL21(DE3), purified (HisTrap, Superdex 200)
B3: UB2H domain of PBP1B (PBP1B^108–200) (domain or fragment, E. coli, UniProt P02919 108-200, looked up)
chain: GRMVNLEPDMTISKNEMVKLLEATQYRQVSKMTRPGEFTVQANSIEMIRRPFDFPDSKEGQVRARLTFDGDHLATIVNMENNRQFGFFRLDPR
notes: PBP1B, E. coli, residues 108 to 200 (UB2H domain), in pET28a with a thrombin cleavage site; [13C,15N]- or 15N-labelled for NMR; in the reciprocal PRE experiment spin labelled at random on lysines with OXYL-1-NHS; source: E. coli BL21(DE3), isotopically labelled in M9 medium, purified (HisTrap, Superdex 200)

Key:
Details in all cases: both partners purified
[1] = target: T1, PBP1B (wild type, PBP1B^46-844); assay: SPR; PBP1B versions immobilised to the chip surface; CpoB versions injected from either 3.9 nM to 2 μM or from 78 nM to 40 μM; apparent KD by non-linear regression, at least three independent experiments
[2] = target: T1, PBP1B (wild type, PBP1B^46-844); assay: as above; remark: listed apart in the source
[3] = target: B1; assay: paramagnetic relaxation enhancement (PRE) NMR; 100 µM 15N-labelled protein with the partner spin labelled at random on lysines, molar ratio 1:2, 2D HN-HSQC at 850 MHz, 20°C; intensity ratio before and after reduction with sodium ascorbate; done in both directions (15N-CpoB with spin labelled UB2H, 15N-UB2H with spin labelled CpoB)

With B1 the Kd [1] was 4.9 µM.

B2: binds [2].

B3: binds [3].

Reference: publication PMC6220978, “Induced conformational changes activate the peptidoglycan synthase PBP1B” (Molecular Microbiology, 2018)
